Laboratory results published in PMC6954424.

Molecular target: mouse IgG (on magnet beads) (mouse)
Assay: pull-down; DNA-barcoded HaloTag protein G (93 nM by qPCR) mixed with mouse IgG magnet beads in PBS-NP40, 4°C, 2 h; three washes; bound barcode quantified by qPCR

fold signal (qPCR of the barcode) over the negative control barcoded GST with IgG: 1000 fold
Substance: DNA-barcoded HaloTag protein G (from UniProt P06654 34-417) (natural protein)
